# What was measured:
# [1] = biological target: T1, Ebola virus (EBOV) glycoprotein (GP), wild-type, construct not stated (Ebola virus (EBOV), UniProt Q05320 33-650); experiment: cell-based or functional assay
# T1 sequence: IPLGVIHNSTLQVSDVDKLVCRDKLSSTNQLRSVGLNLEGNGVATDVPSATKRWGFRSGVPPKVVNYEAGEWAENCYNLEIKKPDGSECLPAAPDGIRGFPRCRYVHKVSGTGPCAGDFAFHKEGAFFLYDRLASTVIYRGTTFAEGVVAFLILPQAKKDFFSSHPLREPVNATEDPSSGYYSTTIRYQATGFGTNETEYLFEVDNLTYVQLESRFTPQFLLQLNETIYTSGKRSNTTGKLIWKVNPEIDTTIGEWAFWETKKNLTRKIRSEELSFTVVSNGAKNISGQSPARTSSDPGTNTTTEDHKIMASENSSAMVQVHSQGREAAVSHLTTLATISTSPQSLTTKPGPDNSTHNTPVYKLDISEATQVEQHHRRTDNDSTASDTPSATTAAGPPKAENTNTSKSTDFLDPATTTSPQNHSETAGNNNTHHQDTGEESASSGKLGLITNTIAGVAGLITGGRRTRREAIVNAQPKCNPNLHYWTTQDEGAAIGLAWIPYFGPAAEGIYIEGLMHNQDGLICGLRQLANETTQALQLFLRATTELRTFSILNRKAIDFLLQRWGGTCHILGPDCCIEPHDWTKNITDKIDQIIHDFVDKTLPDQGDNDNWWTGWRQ
# [2] = biological target: T2, thermolysin-cleaved GP (GPCL) (Ebola virus (EBOV), UniProt Q05320 33-190; Q05320 502-650); experiment: ELISA
# T2 sequence 1: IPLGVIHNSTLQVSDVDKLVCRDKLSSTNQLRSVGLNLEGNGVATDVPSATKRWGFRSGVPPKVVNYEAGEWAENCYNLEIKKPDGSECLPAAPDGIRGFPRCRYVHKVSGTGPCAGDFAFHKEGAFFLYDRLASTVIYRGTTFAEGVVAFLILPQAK
# T2 sequence 2: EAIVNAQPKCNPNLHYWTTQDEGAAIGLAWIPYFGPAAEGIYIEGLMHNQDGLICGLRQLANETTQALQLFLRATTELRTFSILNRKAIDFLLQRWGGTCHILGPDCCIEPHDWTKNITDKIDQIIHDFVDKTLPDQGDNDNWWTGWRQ
# [3] = biological target: T2, thermolysin-cleaved GP (GPCL); experiment: biolayer interferometry
Binder,EC50 of neutralization of luciferase-expressing VSV pseudotype on Vero cells [1],EC50 [2],Kd [3],koff [3],kon [3]
"m8C4 (antibody, V domains shown) VH: EVQLQESGPELKKPGETVKISCKASGYTFTTYGMSWVKQAPGKGLKWMGRINTYSGVPTYADEFKGRFAFSLENSASTAYLQINNLKNEDTATYFCARGDGGHWFANWGQGTLVTVSA VL: DIQMTQSPSSLSASLGGKVTITCKASQDINKNIAWYQHKPGKGPRLLIWYKSALQPGIPSRFSGSGSGRDYSFSISNLEPEDIATYSCLQYDNLPPTFGGGTKLEIKR",> 10 µg/mL,–,–,–,–
"CA45 (antibody, V domains shown) VH: QVQLQEWGEGLVKPSETLSLTCAVYGGSISGYYHWNWIRLPPGKGLEWIGNIDNSASTNYNPSLKTRVTISKDTSKNQISLKVRSLTAADTAVYYCARDPGFTIFGVVITSWSGLDSWGQGAVVTVSS VL: DIQMTQSPSSLSASVGDTVTITCRASQSISNNLAWYQQRPRRAPQLLIYAASNLASGVPSRFSGSGSGTDFTLTISSLQAEDFAAYYCQQHNTLPLTFGGGTKVEI",–,0.06 nM,< 0.006 nM,< 1e-07 s⁻¹,16000 M⁻¹ s⁻¹

# From patent US20190381162A1 (INTEGRATED BIOTHERAPEUTICS, published 2019)
